Key:
[1] = test system: P120 thrombin-cleavable peptide, Biotin-GGGSGGGSGGfPRSGGGGGC
[2] = test system: P213 MMP9-cleavable peptide, Biotin-GGGPLGVRGKGGC
[3] = test system: P220 MMP9-cleavable peptide, Biotin-GGGGGGGGGGPLGVRGKGGC
[4] = test system: P113 thrombin-cleavable peptide, Biotin-SGGfPRSGGSGGC

MMP9 (Active, Human, Recombinant, PF140, Merck Millipore), sequence (chain, as listed by the source): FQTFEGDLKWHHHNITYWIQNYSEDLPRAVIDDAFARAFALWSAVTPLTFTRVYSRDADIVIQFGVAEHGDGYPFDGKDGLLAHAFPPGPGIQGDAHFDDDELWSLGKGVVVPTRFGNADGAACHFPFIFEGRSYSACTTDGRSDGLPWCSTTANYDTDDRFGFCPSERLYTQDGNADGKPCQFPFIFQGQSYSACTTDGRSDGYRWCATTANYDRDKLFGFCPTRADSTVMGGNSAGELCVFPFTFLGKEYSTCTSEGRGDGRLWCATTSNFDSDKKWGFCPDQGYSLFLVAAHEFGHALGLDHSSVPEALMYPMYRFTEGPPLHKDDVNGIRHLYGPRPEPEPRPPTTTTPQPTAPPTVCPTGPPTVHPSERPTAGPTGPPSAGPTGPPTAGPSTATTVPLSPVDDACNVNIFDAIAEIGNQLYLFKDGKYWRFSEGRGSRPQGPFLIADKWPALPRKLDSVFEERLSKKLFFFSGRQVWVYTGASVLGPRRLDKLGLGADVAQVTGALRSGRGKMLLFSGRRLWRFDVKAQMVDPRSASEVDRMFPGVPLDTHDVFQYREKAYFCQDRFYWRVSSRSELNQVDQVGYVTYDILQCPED
P120 thrombin-cleavable peptide, Biotin-GGGSGGGSGGfPRSGGGGGC, sequence (chain, as listed by the source): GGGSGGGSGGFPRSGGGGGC

Row | Substance | % Cleavage (free AuNC fraction: 7-12 mL), gel filtration chromatography with catalytic activity readout; AuNC-P120-NAv + MMP9 (12 h) [1] [%] | fraction of AuNCs cleaved from AuNC-P213-NAv within 1 h, FCS, 50 nM MMP9 [2] | rate of cleavage by FCS (linear region, 50 nM MMP9), AuNC-P213-NAv complex [2] | % Cleavage (free AuNC fraction: 7-12 mL), gel filtration chromatography with catalytic activity readout; AuNC-P220-NAv + MMP7/9/13 (12 h) [3] | % Cleavage (free AuNC fraction: 7-12 mL), gel filtration chromatography with catalytic activity readout; AuNC-P220-NAv + MMP9 (12 h) [3] [%] | fraction of AuNCs cleaved from AuNC-P220-NAv within 1 h, FCS, 50 nM MMP9 [3] | rate of cleavage by FCS (linear region, 50 nM MMP9), AuNC-P220-NAv complex [3] [% AuNC cleaved per minute] | % Cleavage (free AuNC fraction: 7-12 mL), gel filtration chromatography with catalytic activity readout; AuNC-P113-NAv + THR (12 h) [4] [%] | % Cleavage (free AuNC fraction: 7-12 mL), gel filtration chromatography with catalytic activity readout; AuNC-1:5-P120-NAv + THR (1 h), ca. 20 biotin ligands per AuNC [1] [%] | % Cleavage (free AuNC fraction: 7-12 mL), gel filtration chromatography with catalytic activity readout; AuNC-1:20-P120-NAv + THR (1 h), ca. 5 biotin ligands per AuNC [1] [%] | % Cleavage (free AuNC fraction: 7-12 mL), gel filtration chromatography with catalytic activity readout; AuNC-P120-NAv + THR (12 h) [1] [%] | % Cleavage (free AuNC fraction: 7-12 mL), gel filtration chromatography with catalytic activity readout; AuNC-P220-NAv + THR (12 h) [3] [%]
1 | MMP9 (Active, Human, Recombinant, PF140, Merck Millipore) | 7.1 | only 20% AuNCs are cleaved from the AuNC-P213-NAv complex | only 0.08% AuNC cleaved per minute | MMP9: 54.9% | 75.1 | 80% AuNCs are cleaved within the first hour of incubation with MMP9 | 3 | – | – | – | – | –
2 | MMP13 (Active, Human, Recombinant, 444287) | – | – | – | MMP13: 29.8% | – | – | – | – | – | – | – | –
3 | thrombin from human plasma (T7009, Sigma) | – | – | – | – | – | – | – | 21.8 | 49.6 | 89.9 | 90.2 | 5.5

From patent publication US20200116725
